Data from patent publication US9527913B2, “Humanized pan-HER antibody compositions” (Symphogen A/S, priority 2012, dated 2016).

Tests used:
human HER3 = biological target: T1, human HER3 (Homo sapiens, UniProt P21860); assay: Kinetic binding analysis by surface plasmon resonance (ProteOn XPR36, IgG capture); conditions: Human antigen
T1 construct: against soluble antigen under monovalent conditions; purchased Sino Biologicals
Protocol: (§1) Kinetic binding analysis of the purified humanized variants was performed on a ProteOn™ XPR36 biosensor (BioRad, USA) employing an IgG capture assay as described by Canziani et al. (Anal. Biochem. (2004) 325:301-307) that allows for measurement of antibody affinities of whole IgG molecules against soluble antigen under monovalent conditions. Briefly, approximately 5000 resonance units (RU) of a monoclonal mouse anti-human IgG Fc antibody (GE Healthcare, Denmark) was conjugated to a GLC chip surface (BioRad, USA) according to the manufacturer's instructions, followed by capture of individual antibodies of the invention or a negative control on the anti-Fc sensor surface. […] Next, 250 μl monovalent antigen (Sino Biologicals) was injected at a flow rate of 50 μl/min in serial threefold dilutions from 100 nM stock to generate response curves. The chip surface was regenerated between cycles by stripping the captured antibody/antigen complexes off the surface with a 10-second injection of 3 M MgCl2 (GE Healthcare, Denmark) repeated three times. Finally, binding responses were fitted to a Langmuir 1:1 binding model for calculation of the on-rate (kon or ka), off-rate (koff or kd) and affinity (KD) constants using double referencing.

cynomolgus HER3 = assay: as above; conditions: Cynomolgus antigen
Protocol: as §1

[1] = tested on: human or cynomolgus antigen (EGFR, HER2 or HER3); assay: Off-rate ranking of library hits (Octet QK384, Protein G biosensors); assay type: binding; conditions: expression supernatant, antigen at 200 nM, dissociation 20 min
Protocol: Approximately 100 hits from each library that yielded an OD signal similar to or higher than that of the chimeric parent antibody were subjected to off-rate ranking using an Octet® QK384 instrument (Fortebio, Menlo Park, Calif.). Protein G biosensors (Fortebio) were used for capturing of antibody from 40 μl of expression supernatant followed by incubation with human or cynomolgus antigen at 200 nM. Human antigens were obtained from Sino Biologicals and cynomolgus antigens were produced in-house by transient expression in CHO or HEK293 cells (Koefoed et al. (2011) mAbs, 3:6, 1-12). Subsequently, the biosensors were incubated in PBS and the dissociation of antigen was recorded for 20 min to allow for a reliable determination of the dissociation rates. The responses were globally fitted to a Langmuir 1:1 binding model for calculation of dissociation constants.

[2] = tested on: EGFR, HER2 and HER3 from humans, cynomolgus monkeys and mice, human and murine HER4; assay: Cross-reactivity ELISA with coated antigens; assay type: binding, mouse; conditions: OD at 450 nm, 40 nM antibody, compared to chimeric parent
Protocol: Antibody-antigen binding was measured by ELISA with coated antigens. Human antigens were obtained from Sino Biologicals. All other antigens were produced in-house by transient expression in CHO or HEK293 cells. Chimeric and humanized antibodies, as well as an isotype control antibody, were incubated with the coated antigens at different concentrations. After wash, bound antibodies were detected by HRP-(horse radish peroxidase)-conjugated secondary antibodies. The OD signal from 40 nM antibody, measured at 450 nm using an ELISA reader, was scored from negative (−; OD<0.1) to strongly positive (+++; OD>2.5).

[3] = tested on: A431NS, H358, FaDu, OE19, BT474, MDA-MB-175 VII, MCF-7, N87, HN5, MFE-280 cancer cell lines; assay: Viability assay (WST-1) of humanized variants with partner antibody and of six-antibody mixtures; assay type: cell-based, human; conditions: two cell lines per variant, 96 hours
Protocol: Each humanized variant was tested in two cell lines and compared to the parental mixture of two chimeric antibodies and to a negative control antibody. […] In addition, a combination of six humanized variants (11294, 11302, 11249, 11145, 10738 and 11052; Humanized Pan-HER) was tested in a number of cell lines and compared to the combination of the six chimeric antibodies (1277, 1565, 4384, 4517, 5038 and 5082; Chimeric Pan-HER). The cell lines used, N87 gastric, FaDu head and neck, A431NS epidermoid, OE19 esophageal, HN5 head and neck, MDA-MB-175 VII breast and MFE-280 endometrial cancer, were selected on the basis of their previously determined dependency on the HER family receptors.
Prior to performing the viability assay the appropriate antibodies and antibody mixtures were diluted to a final total antibody concentration of 100 μg/ml in appropriate media supplemented with 0.5-2% FBS and 1% P/S (penicillin/streptomycin), yielding a final total antibody concentration of 50 μg/ml in the well containing the highest antibody concentration. A threefold serial dilution of the antibodies was then performed in a 384-well plate, followed by addition of relevant numbers of cells to the experimental wells. The MCF-7 cells were also stimulated with 1 nM heregulin beta. The plates were incubated for 4 days in a humidified incubator at 37° C. WST-1 reagent (Roche Applied Science, Mannheim, Germany) was added to the plates and the plates were incubated for 1-3 h at 37° C. Plates were transferred to an orbital plate shaker for one h and the absorbance was measured at 450 and 620 nm (reference wavelength) using an ELISA reader. The percentage of metabolically active cells (MAC) is calculated as a percentage of the untreated control as follows: […]

human HER2 = biological target: T2, human HER2 (Homo sapiens, UniProt P04626); assay: Kinetic binding analysis by surface plasmon resonance (ProteOn XPR36, IgG capture); conditions: Human antigen
T2 construct: against soluble antigen under monovalent conditions; purchased Sino Biologicals
Protocol: as §1

cynomolgus HER2 = assay: as above; conditions: Cynomolgus antigen
Protocol: as §1

ka (human HER3) [M⁻¹ s⁻¹]	kd (human HER3) [s⁻¹]	ka (cynomolgus HER3) [M⁻¹ s⁻¹]	kd (cynomolgus HER3) [s⁻¹]	ka (human HER2) [M⁻¹ s⁻¹]	kd (human HER2) [s⁻¹]	Kd (cynomolgus HER2) [nM]	ka (cynomolgus HER2) [M⁻¹ s⁻¹]	kd (cynomolgus HER2) [s⁻¹]	Molecule	KD (estimated) (human HER3; KD could not be determined due to a very slow off-rate)	dissociation rate (off-rate ranking) compared to parent antibody [1]	cross-reactivity pattern with HER family antigens [2]	anti-proliferative effect in combination with partner antibody, compared to mixture of the two chimeric parent antibodies [3]
740000	<2e-06	1.5e+06	8.7e-05	–	–	–	–	–	antibody 11006: humanized anti-HER3 antibody from chimeric parent 5082; HC SEQ ID NO: 58, LC SEQ ID NO: 59 (antibody, V domains shown) VH: QVQLQESGPGLVKPSQTLSLTCTVSGYSITSAYYWNWIRQHPGKGVEWMGYIGYSGRNTYNPSLKNRVTISRDTSKNQFSLKLSSVTAADTAVYYCSREGDYGYSDYWGQGTLVTVSS VL: DIQMTQSPSSLSASVGDRVTVTCRASQDTNNYLNWYQQKPGKAVKLLIYYTSRLQSGVPSRFSGSGSGTDFTLTISSLQPEDFATYFCQQSETLPWTFGQGTKVEIK	*KD could not be determined due to a very slow off-rate. Estimated to be in the picomolar range.	improved dissociation rate	binding to the same human and cynomolgus antigen combined with lack of binding to the mouse antigen or to other EGFR family receptors	highly similar anti-proliferative effects
–	–	–	–	260000	0.00029	3.7	230000	0.00086	antibody 4517: chimeric parent anti-HER2 antibody disclosed in WO 2012/059857; VH SEQ ID NO: 27, light chain SEQ ID NO: 29 (antibody) VH: EVQLVESGGDLVKPGGSLKLSCAASGFTFSSYGMSWVRLTPDKRLEWVATISGGGSYTYYPDSVKGRFTISRDIAKSTLYLQMSSLKSEDTAVYYCARKGNYGNYGKLAYWGQGTSVTVS light: DIQMTQSPASLSVSVGETVTITCRASENIYSNLAWYQQEQGKSPQLLVYAATNLADGVPSRFSGSGSGTQYSLKINSLQSEDFGSYYCQHFWGTPWTFGGGTKLEIKRTVAAPSVFIFPPSDEQLKSGTASVVCLLNNFYPREAKVQWKVDNALQSGNSQESVTEQDSKDSTYSLSSTLTLSKADYEKHKVYACEVTHQGLSSPVTKSFNRGEC	–	–	–	–
